Data taken from patent US5783421.

Key:
Factor Xa [1] = molecular target: Factor Xa
Factor Xa [2] = experiment: modified prothrombinase complex assay (50 pM FXa, 1.35 µM prothrombin)
Factor Xa [3] = experiment: inhibition of FXa in the prothrombinase complex assay (250 pM FXa, 2.67 µM prothrombin)

## naturally occurring FXa inhibitor isolated from dilute leech saliva (DLS) of Hirudo medicinalis
Factor Xa [1]
  IC50, generation of thrombin from prothrombin by FXa in a prothrombinase complex: 190 pM
Factor Xa [2]
  Ki: 0.12 nM
Factor Xa [3]
  Ki: 0.072 nM
